From patent US20060257938A1, “Method of screening for drugs that block ligand binding to a lipid binding protein” (priority 2005, published 2006)
Where a chain is given by its changes, count along the chain named.

B1: 36S, 72A (protein, listed as Rattus norvegicus)
chain: AFDGTWKVDRNENYEKFMEKMGINVVKRKLGAHDNSKLTITQEGNKFTVKESSNFRNIDVVFELGVDFAYSAADGTELTGTWTMEGNKLVGKFKRVDNGKELIAVREISGNELIQTYTYEGVEAKRIFKKE
modifications: PEPTIDE (1)...(131) wild-type rat intestinal fatty acid binding protein
B2: 36Y, 72A (protein, listed as Rattus norvegicus)
chain: B1 chain with S36Y
modifications: PEPTIDE (1)...(131) wild-type rat intestinal fatty acid binding protein
B3: 47C3, L72A (protein, listed as Rattus norvegicus)
chain: B1 chain with S36L, F47C
modifications: PEPTIDE (1)...(131) wild-type rat intestinal fatty acid binding protein
B4: 38G1, 72A (protein, listed as Rattus norvegicus)
chain: B1 chain with S36L, L38G
modifications: PEPTIDE (1)...(131) wild-type rat intestinal fatty acid binding protein
B5: 38I3, 72A (protein, listed as Rattus norvegicus)
chain: B1 chain with S36L, L38I
modifications: PEPTIDE (1)...(131) wild-type rat intestinal fatty acid binding protein
B6: 38K1, 72A (protein, listed as Rattus norvegicus)
chain: B1 chain with S36L, L38K
modifications: PEPTIDE (1)...(131) wild-type rat intestinal fatty acid binding protein
B7: 47A1, L72A (protein, listed as Rattus norvegicus)
chain: B1 chain with S36L, F47A
modifications: PEPTIDE (1)...(131) wild-type rat intestinal fatty acid binding protein
B8: 40V1, L72A (protein, listed as Rattus norvegicus)
chain: B1 chain with S36L, I40V
modifications: PEPTIDE (1)...(131) wild-type rat intestinal fatty acid binding protein
B9: 38E1, 72A (protein, listed as Rattus norvegicus)
chain: B1 chain with S36L, L38E
modifications: PEPTIDE (1)...(131) wild-type rat intestinal fatty acid binding protein
B10: 38Y1, 72A (protein, listed as Rattus norvegicus)
chain: B1 chain with S36L, L38Y
modifications: PEPTIDE (1)...(131) wild-type rat intestinal fatty acid binding protein
B11: 38T3, 72A (protein, listed as Rattus norvegicus)
chain: B1 chain with S36L, L38T
modifications: PEPTIDE (1)...(131) wild-type rat intestinal fatty acid binding protein
B12: 102Q, 72A (protein, listed as Rattus norvegicus)
chain: B1 chain with S36L, L102Q
modifications: PEPTIDE (1)...(131) wild-type rat intestinal fatty acid binding protein
B13: 38Q1, 72A (protein, listed as Rattus norvegicus)
chain: B1 chain with S36L, L38Q
modifications: PEPTIDE (1)...(131) wild-type rat intestinal fatty acid binding protein
B14: 102P, 72A (protein, listed as Rattus norvegicus)
chain: B1 chain with S36L, L102P
modifications: PEPTIDE (1)...(131) wild-type rat intestinal fatty acid binding protein
B15: 38H1, 72A (protein, listed as Rattus norvegicus)
chain: B1 chain with S36L, L38H
modifications: PEPTIDE (1)...(131) wild-type rat intestinal fatty acid binding protein
B16: 40Y3, L72A (protein, listed as Rattus norvegicus)
chain: B1 chain with S36L, I40Y
modifications: PEPTIDE (1)...(131) wild-type rat intestinal fatty acid binding protein
B17: 38V2, 72A (protein, listed as Rattus norvegicus)
chain: B1 chain with S36L, L38V
modifications: PEPTIDE (1)...(131) wild-type rat intestinal fatty acid binding protein
B18: 40F2, L72A (protein, listed as Rattus norvegicus)
chain: B1 chain with S36L, I40F
modifications: PEPTIDE (1)...(131) wild-type rat intestinal fatty acid binding protein
B19: 38S1, 72A (protein, listed as Rattus norvegicus)
chain: B1 chain with S36L, L38S
modifications: PEPTIDE (1)...(131) wild-type rat intestinal fatty acid binding protein
B20: 38F1, 72A (protein, listed as Rattus norvegicus)
chain: B1 chain with S36L, L38F
modifications: PEPTIDE (1)...(131) wild-type rat intestinal fatty acid binding protein
B21: 38A2, 72A (protein, listed as Rattus norvegicus)
chain: B1 chain with S36L, L38A
modifications: PEPTIDE (1)...(131) wild-type rat intestinal fatty acid binding protein
B22: 38N1, 72A (protein, listed as Rattus norvegicus)
chain: B1 chain with S36L, L38N
modifications: PEPTIDE (1)...(131) wild-type rat intestinal fatty acid binding protein
B23: 38W1, 72A (protein, listed as Rattus norvegicus)
chain: B1 chain with S36L, L38W
modifications: PEPTIDE (1)...(131) wild-type rat intestinal fatty acid binding protein

test: Probe fluorescence ratio response to oleic acid relative to ADIFAB2; type: binding; conditions: response relative to ADIFAB2
Outline: (§1)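 Each fatty acid's response was expressed relative to ADIFAB2, the rI-FABP-L72A probe, as ΔR/ΔRreference. ΔR is the change in the background-corrected two-wavelength intensity ratio R=Fλ1/Fλ2 from its analyte-free baseline R0. Emission was read near about 420-480 nm for unbound and about 495-580 nm for FFA-bound probe.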

Row | Molecule | DR/DR OA
1 | B1 | 0.43
2 | B2 | 0.66
3 | B3 | 0.35
4 | B4 | 1.03
5 | B5 | 1.21
6 | B6 | 0.76
7 | B7 | 0.59
8 | B8 | 1.21
9 | B9 | 0.54
10 | B10 | 1.72
11 | B11 | 1.55
12 | B12 | 0.60
13 | B13 | 1.75
14 | B14 | 0.49
15 | B15 | 1.16
16 | B16 | 0.48
17 | B17 | 1.75
18 | B18 | 0.90
19 | B19 | 1.28
20 | B20 | 0.97
21 | B21 | 1.26
22 | B22 | 0.97
23 | B23 | 1.58

test: Probe fluorescence ratio response to palmitic acid relative to ADIFAB2; type: binding; conditions: response relative to ADIFAB2
Outline: as §1

Row | Molecule | DR/DR PA
24 | B1 | 0.42
25 | B2 | 0.60
26 | B3 | 0.23
27 | B4 | 0.56
28 | B5 | 1.12
29 | B6 | 0.48
30 | B7 | 0.30
31 | B8 | 0.91
32 | B9 | 0.31
33 | B10 | 1.52
34 | B11 | 1.02
35 | B12 | 0.30
36 | B13 | 1.30
37 | B14 | 0.39
38 | B15 | 0.74
39 | B16 | 0.29
40 | B17 | 1.50
41 | B18 | 0.80
42 | B19 | 0.71
43 | B20 | 0.85
44 | B21 | 0.68
45 | B22 | 0.65
46 | B23 | 1.55

test: Probe fluorescence ratio response to arachidonic acid relative to ADIFAB2; type: binding; conditions: Arachidonic acid; response relative to ADIFAB2
Outline: as §1

Row | Molecule | DR/DR AA
47 | B3 | 0.32
48 | B4 | 1.03
49 | B5 | 1.18
50 | B6 | 0.83
51 | B7 | 0.54
52 | B8 | 1.20
53 | B10 | 2.08
54 | B11 | 1.60
55 | B13 | 1.87
56 | B15 | 1.24
57 | B16 | 0.89
58 | B17 | 1.65
59 | B18 | 0.89
60 | B19 | 1.28
61 | B22 | 1.08
62 | B23 | 1.35

same assay, conditions: arachidonic acid; response relative to ADIFAB2

Row | Molecule | DR/DR AA
63 | B1 | 0.49
64 | B2 | 0.68
65 | B9 | 0.57
66 | B12 | 0.62
67 | B14 | 0.50
68 | B20 | 0.91
69 | B21 | 1.23

test: Probe fluorescence ratio response to linoleic acid relative to ADIFAB2; type: binding; conditions: response relative to ADIFAB2
Outline: as §1

Row | Molecule | DR/DR LA
70 | B1 | 0.50
71 | B2 | 0.75
72 | B3 | 0.37
73 | B4 | 1.10
74 | B5 | 1.22
75 | B6 | 0.90
76 | B7 | 0.58
77 | B8 | 1.24
78 | B9 | 0.59
79 | B10 | 1.82
80 | B11 | 1.58
81 | B12 | 0.66
82 | B13 | 1.90
83 | B14 | 0.54
84 | B15 | 1.25
85 | B16 | 0.50
86 | B17 | 1.70
87 | B18 | 0.90
88 | B19 | 1.37
89 | B20 | 0.95
90 | B21 | 1.31
91 | B22 | 1.12
92 | B23 | 2.41

test: Probe fluorescence ratio response to linolenic acid relative to ADIFAB2; type: binding; conditions: response relative to ADIFAB2
Outline: as §1

Row | Molecule | DR/DR LNA
93 | B1 | 0.50
94 | B2 | 0.68
95 | B3 | 0.35
96 | B4 | 1.07
97 | B5 | 1.21
98 | B6 | 0.86
99 | B7 | 0.57
100 | B8 | 1.28
101 | B9 | 0.29
102 | B10 | 1.88
103 | B11 | 1.64
104 | B12 | 0.71
105 | B13 | 1.87
106 | B14 | 0.56
107 | B15 | 1.19
108 | B16 | 0.49
109 | B17 | 1.67
110 | B18 | 0.99
111 | B19 | 1.37
112 | B20 | 0.96
113 | B21 | 1.30
114 | B22 | 1.14
115 | B23 | 1.34
